Results on 2 proteins are retold here after PMC4380140 (Journal of biomolecular screening, 2012).

The data set “dynamic light scattering” deals with the molecule itself. Description: dynamic light scattering.
The data set “SEC” concerns the molecule itself. Description: SEC.

B1: ectodomain ephrinB3 (ed-ephrinB3), amino acids 28-227 of mouse ephrinB3 extracellular domain (domain or fragment, UniProt O35393 28-227, looked up)
chain: LSLEPVYWNSANKRFQAEGGYVLYPQIGDRLDLLCPRARPPGPHSSPSYEFYKLYLVEGAQGRRCEAPPAPNLLLTCDRPDLDLRFTIKFQEYSPNLWGHEFRSHHDYYIIATSDGTREGLESLQGGVCLTRGMKVLLRVGQSPRGGAVPRKPVSEMPMERDRGAAHSAEPGRDTIPGDPSSNATSRGAEGPLPPPSMPA
As for B1, the “stoichiometry N” value in “dynamic light scattering” came to 104 monomers per particle.

B2: ectodomain ephrinB1 (ed-ephrinB1), amino acids 26-236 of mouse ephrinB1 extracellular domain (domain or fragment, UniProt P52795 26-236, looked up)
chain: TPLAKNLEPVSWSSLNPKFLSGKGLVIYPKIGDKLDIICPRAEAGRPYEYYKLYLVRPEQAAACSTVLDPNVLVTCNKPHQEIRFTIKFQEFSPNYMGLEFKKYHDYYITSTSNGSLEGLENREGGVCRTRTMKIVMKVGQDPNAVTPEQLTTSRPSKESDNTVKTATQAPGRGSQGDSDGKHETVNQEEKSGPGAGGGGSGDSDSFFNSK
Consider B2, for which the binding result in “SEC” is given as “binds”.
